# Several values for one entry are separate records, joined by “and”; a condition that tells them apart may be missing. Identical values can stand only once. Like-named read-outs stand apart in the source and are kept apart here.
# B1: 22S protein of the mitotic apparatus, Strongylocentrotus purpuratus (natural protein)
# chain: VPSGSLGSRPGTCPPQPSDQVMIEATRCSYVYGLTWDWNCNSQGQENYKCCQYENDIRICVPPIPADVDEEVGVEQPSQSVDQVRQAIQKTQDFIRKVGLYPAPDQRRRTTPTPDTVRWCVSSRCQMTKCQRMVSEFTYSPNMVPRKQWKCTQATSQEQCMFWIEQGWADIMTTREGQVYSANTTFNLKPIAYETTINDQQPEIQILKHYQNVTFALKSSRLVNPNTFSELRDKTTCHAGIDMPDFDMPASFADPVCNLIKEGVIPVTGNYIESFSDFVQESCVPGVLNMTYNKNGTYPLSLVTLCEDQQYKYSGIKGALSCLESGKGQVTFVDQKVIKKIMSDPNVRDNFQVVCRDESRPLDEEIFTDVTCHVGHTARPTIFINKNNTQQKETDIKTLVVKMMELYGNTDRDVNFNIFDSSVYDCGKCQMTGKPLNKNLIFLEESNTMKIVDDSKVYAGEVYAAYNVCSKLVPKPRAKICVTNVTEYEACRRFKGIAENIPEVKKVAWGCVLANSSIECMQAVHNNTADLFKANPMETFIAGKEFLLDPLMSVHRNDSVTMNHTYTRTLAVIKRSSLAKFPGLLSVPEGQPKYIKDLWKLKICSAGLKNFSAFHSPIGYLLANGTIPRIGSVFESVNRYFQATCVPEIEPETWRLDSDLLLGREMNWGFSSLNMYNFTGQEWLLWNTPATWNFLTYNRKVSTGLDIKKLIELKKQNLTSHIFNQNLSSPRNVELLDDLVGVEGISDLVKGVQDTIGPEGKQKMNMLRDRLSNSFPNFEAVRTLSDKVDIVNKMKDARQQRLQNKDHPFGNVIQETFQGHLMVDVFSKLLELRSDKISTLEEIISHVKTIPYLTDFKDVEITTVLKHPAIMSYVEIYFPRLSQTFVEPFDNVELREREFNRYTNPLWLSPKVHTYLDLVKNHQTEITKTCNSNLPLNFKGYEGALRCLKSGVADLASSTSRPSVTRTLRDTDLSTGWVHLQRPPPSLPQRQVVEIDVNMDIAKVCNFGEVMNPVLVTAYNTSGSWRWNITKALMIAHQSVALPALFGEGTVMGKDYDMLLPIAPLNQSYQPFLGSKPLRSMEAIVKASSYDWFKDQTGICYGETYTNIVKQRNETCQAIVKDVTCVGTPRMKKISVGRFGAKQFKMIKMCSRPSKFVRKMADFQCDNGFGYLKPVITAVACECMLCEEMIEYNTSFTEDNMWSDVSNKYVLTGEQDIYRQIPIWGNNSYFYDHTLNKNFELGNHSIIVEHVQTVVVERPSPGILSQVNSEVDPEVQVQMDSASLTKTCETVWNGQSWLPERFQGYKTSGSCVVPETGANAKSRVDRFRQIMQRKQQLVDHHH
# modifications: carbohydrate 5-6% (orcein assay) or 7-8% (anthrone test), several per cent glucosamine; sites not stated
# Experiments:
# Assay in all cases: AUC
# [1] = target: 22S protein of the mitotic apparatus, Arbacia punctulata (Arbacia punctulata)
# [2] = target: 22S protein of the mitotic apparatus, Arbacia punctulata (Arbacia punctulata); remark: listed apart in the source
# [3] = target: 22S protein of the mitotic apparatus, Arbacia punctulata (Arbacia punctulata); remark: listed apart in the source
# [4] = target: 22S protein of the mitotic apparatus, Arbacia punctulata (Arbacia punctulata); remark: listed apart in the source
# [5] = target: 22S protein of the mitotic apparatus, Arbacia punctulata (Arbacia punctulata); remark: listed apart in the source
# [6] = target: 22S protein of the mitotic apparatus, Arbacia punctulata (Arbacia punctulata); remark: listed apart in the source
# [7] = target: 22S protein of the mitotic apparatus, Strongylocentrotus droebachiensis (Strongylocentrotus droebachiensis)
# [8] = target: 22S protein of the mitotic apparatus, Strongylocentrotus droebachiensis (Strongylocentrotus droebachiensis); remark: listed apart in the source
# [9] = target: 22S protein of the mitotic apparatus, Strongylocentrotus droebachiensis (Strongylocentrotus droebachiensis); remark: listed apart in the source
# [10] = target: the molecule itself
# [11] = target: the molecule itself; remark: listed apart in the source
molecule,measurement,setting,value
"22S protein of the mitotic apparatus, Arbacia punctulata (natural protein)",stoichiometry N,[1],2
same,stoichiometry N,[2],2
same,stoichiometry N,[3],4 and 2 and 6
same,stoichiometry N,[4],8
same,stoichiometry N,[5],6 and 4 and 2
same,stoichiometry N,[6],2
"22S protein of the mitotic apparatus, Strongylocentrotus droebachiensis (natural protein)",stoichiometry N,[7],2
same,stoichiometry N,[8],8
same,stoichiometry N,[9],2
B1,stoichiometry N,[10],8
same,stoichiometry N,[11],2

# — paper PMC2107256 (The Journal of Cell Biology, 1967)
